Among the data in paper doi:10.1101/2024.10.14.618187, “Molecular basis of interchain disulfide-bond formation in BMP-9 and BMP-10” (bioRxiv, 2024) are binding result and other: dimer over monomer ratio values, retold here.

Series [1] concerns the molecule itself. The series can be described thus: non-reducing SDS-PAGE after IMAC, with densitometry; His-tagged pro-proteins purified from expi293 conditioned medium by IMAC, run non-reduced and reduced; shows the disulfide-linked dimer beside the monomer; bands quantified with ImageJ.
Series [2] has as its target T1, Pro-(X)-BMP-10 S385G, R353K, O95393.
T1 chain: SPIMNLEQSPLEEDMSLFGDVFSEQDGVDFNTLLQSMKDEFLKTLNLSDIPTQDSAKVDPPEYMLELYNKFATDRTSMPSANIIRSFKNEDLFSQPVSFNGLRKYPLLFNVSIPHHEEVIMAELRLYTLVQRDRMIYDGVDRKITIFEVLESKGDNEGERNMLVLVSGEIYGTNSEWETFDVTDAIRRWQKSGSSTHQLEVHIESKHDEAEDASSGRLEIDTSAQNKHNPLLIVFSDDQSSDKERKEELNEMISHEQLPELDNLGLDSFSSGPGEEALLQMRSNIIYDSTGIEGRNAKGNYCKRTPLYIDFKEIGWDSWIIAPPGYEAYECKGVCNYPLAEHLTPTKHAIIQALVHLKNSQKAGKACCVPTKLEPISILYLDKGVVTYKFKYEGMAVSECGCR
The series can be described thus: SDS-PAGE densitometry after IMAC purification. The following applies: chain shown with the change.

Series [3] concerns the target T2, Pro-(X)-BMP-10 S385G, O95393.
T2 chain: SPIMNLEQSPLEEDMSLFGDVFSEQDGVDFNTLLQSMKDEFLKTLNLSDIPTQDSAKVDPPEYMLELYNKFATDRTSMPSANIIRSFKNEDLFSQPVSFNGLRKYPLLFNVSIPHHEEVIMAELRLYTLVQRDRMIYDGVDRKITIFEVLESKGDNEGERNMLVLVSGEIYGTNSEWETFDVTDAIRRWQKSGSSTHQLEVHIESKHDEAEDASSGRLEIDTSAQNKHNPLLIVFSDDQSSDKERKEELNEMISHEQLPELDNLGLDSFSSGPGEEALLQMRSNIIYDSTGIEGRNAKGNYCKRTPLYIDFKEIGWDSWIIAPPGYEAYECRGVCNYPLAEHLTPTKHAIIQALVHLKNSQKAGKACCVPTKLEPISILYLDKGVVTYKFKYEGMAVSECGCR
The series can be described thus: SDS-PAGE densitometry after IMAC purification. Conditions: chain shown with the change.

B1: Pro-(X)-BMP-9 (natural protein, human, UniProt Q9UK05 23-429, looked up)
chain: KPLQSWGRGSAGGNAHSPLGVPGGGLPEHTFNLKMFLENVKVDFLRSLNLSGVPSQDKTRVEPPQYMIDLYNRYTSDKSTTPASNIVRSFSMEDAISITATEDFPFQKHILLFNISIPRHEQITRAELRLYVSCQNHVDPSHDLKGSVVIYDVLDGTDAWDSATETKTFLVSQDIQDEGWETLEVSSAVKRWVRSDSTKSKNKLEVTVESHRKGCDTLDISVPPGSRNLPFFVVFSNDHSSGTKETRLELREMISHEQESVLKKLSKDGSTEAGESSHEEDTDGHVAAGSTLAIEGRSSGAGSHCQKTSLRVNFEDIGWDSWIIAPKEYEAYECKGGCFFPLADDVTPTKHAIVQTLVHLKFPTKVGKACCVPTKLSPISVLYKDDMGVPTLKYHYEGMSVAECGCR
notes: human proBMP9 residues 23-429, furin site RRKR replaced by factor X site IEGR; Secreted unprocessed as a monomer-dimer mixture; also called Pro-BMP-9 with factor-X processing site; Pro-BMP-9 wild-type; source: expi293 (suspension HEK293), secreted; purified from conditioned medium by IMAC; not shown: 8xHis, N-terminal, kept
As to B1, the binding result in series [1] is “binds”.

B2: Pro-(X)-BMP-10, O95393 S385G; R353K (protein)
chain: SPIMNLEQSPLEEDMSLFGDVFSEQDGVDFNTLLQSMKDEFLKTLNLSDIPTQDSAKVDPPEYMLELYNKFATDRTSMPSANIIRSFKNEDLFSQPVSFNGLRKYPLLFNVSIPHHEEVIMAELRLYTLVQRDRMIYDGVDRKITIFEVLESKGDNEGERNMLVLVSGEIYGTNSEWETFDVTDAIRRWQKSGSSTHQLEVHIESKHDEAEDASSGRLEIDTSAQNKHNPLLIVFSDDQSSDKERKEELNEMISHEQLPELDNLGLDSFSSGPGEEALLQMRSNIIYDSTGIEGRNAKGNYCKRTPLYIDFKEIGWDSWIIAPPGYEAYECKGVCNYPLAEHLTPTKHAIIQALVHLKNSQKAGKACCVPTKLEPISILYLDKGVVTYKFKYEGMAVSECGCR
For the molecule B2, the other: dimer over monomer ratio in series [2] is 0.41.

B3: Pro-(X)-BMP-10, O95393 S385G (protein)
chain: SPIMNLEQSPLEEDMSLFGDVFSEQDGVDFNTLLQSMKDEFLKTLNLSDIPTQDSAKVDPPEYMLELYNKFATDRTSMPSANIIRSFKNEDLFSQPVSFNGLRKYPLLFNVSIPHHEEVIMAELRLYTLVQRDRMIYDGVDRKITIFEVLESKGDNEGERNMLVLVSGEIYGTNSEWETFDVTDAIRRWQKSGSSTHQLEVHIESKHDEAEDASSGRLEIDTSAQNKHNPLLIVFSDDQSSDKERKEELNEMISHEQLPELDNLGLDSFSSGPGEEALLQMRSNIIYDSTGIEGRNAKGNYCKRTPLYIDFKEIGWDSWIIAPPGYEAYECRGVCNYPLAEHLTPTKHAIIQALVHLKNSQKAGKACCVPTKLEPISILYLDKGVVTYKFKYEGMAVSECGCR
Turning to B3, in series [3], the other: dimer over monomer ratio turned out to be 0.42.

B4: Pro-(fr)-BMP-10 (natural protein, human, UniProt O95393 22-424, looked up)
chain: SPIMNLEQSPLEEDMSLFGDVFSEQDGVDFNTLLQSMKDEFLKTLNLSDIPTQDSAKVDPPEYMLELYNKFATDRTSMPSANIIRSFKNEDLFSQPVSFNGLRKYPLLFNVSIPHHEEVIMAELRLYTLVQRDRMIYDGVDRKITIFEVLESKGDNEGERNMLVLVSGEIYGTNSEWETFDVTDAIRRWQKSGSSTHQLEVHIESKHDEAEDASSGRLEIDTSAQNKHNPLLIVFSDDQSSDKERKEELNEMISHEQLPELDNLGLDSFSSGPGEEALLQMRSNIIYDSTARIRRNAKGNYCKRTPLYIDFKEIGWDSWIIAPPGYEAYECRGVCNYPLAEHLTPTKHAIIQALVHLKNSQKASKACCVPTKLEPISILYLDKGVVTYKFKYEGMAVSECGCR
notes: human proBMP10 residues 22-424 with the natural furin site; secreted partially processed; Partly cut by furin into prodomain and growth factor; also called Pro-BMP-10 with unmodified furin processing site; wild-type BMP-10; source: expi293 (suspension HEK293), secreted; purified by IMAC; not shown: 8xHis, N-terminal, kept
B4: the binding result in series [1] was “binds”.

B5: Pro-(fr)-TGF-β2 (natural protein, human, UniProt P61812-1 19-414, looked up)
chain: LSLSTSSTLDMDQFMRKRIEAIRGQILSKLKLTSPPEDYPEPEEVPPEVISIYNSTRDLLQEKASRRAAACERERSDEEYYAKEVYKIDMPPFFPSENAIPPTFYRPYFRIVRFDVSAMEKNASNLVKAEFRVFRLQNPKARVAEQRIELYQILKSKDLTSPTQRYIDSKVVKTRAEGEWLSFDVTDAVHEWLHHKDRNLGFKISLHCPCCTFVPSNNYIIPNKSEELEARFAGIDGTSTYTSGDQKTIKSTRKKNSGKTPHLLLMLLPSYRLESQQTNRRKKRALDAAYCFRNVQDNCCLRPLYIDFKRDLGWKWIHEPKGYNANFCAGACPYLWSSDTQHSRVLSLYNTINPEASASPCCVSQDLEPLTILYYIGKTPKIEQLSNMIVKSCKCS
notes: human proTGFβ2 residues 19-414; Behind the mouse Ig signal peptide and the His tag, no processing site after the tag; Furin processing incomplete; also called Pro-TGF-β2; source: expi293 (suspension HEK293), secreted; purified from conditioned medium by the histidine tag; not shown: 8xHis, N-terminal, kept
Regarding B5, in series [1], the binding result is on record as “binds”.

B6: Pro-(fr)-Act-A (natural protein, human, UniProt P08476 27-426, looked up)
chain: EGHSAAPDCPSCALAALPKDVPNSQPEMVEAVKKHILNMLHLKKRPDVTQPVPKAALLNAIRKLHVGKVGENGYVEIEDDIGRRAEMNELMEQTSEIITFAESGTARKTLHFEISKEGSDLSVVERAEVWLFLKVPKANRTRTKVTIRLFQQQKHPQGSLDTGEEAEEVGLKGERSELLLSEKVVDARKSTWHVFPVSSSIQRLLDQGKSSLDVRIACEQCQESGASLVLLGKKKKKEEEGEGKKKGGGEGGAGADEEKEQSHRPFLMLQARQSEDHPHRRRRRGLECDGKVNICCKKQFFVSFKDIGWNDWIIAPSGYHANYCEGECPSHIAGTSGSSLSFHSTVINHYRMRGHSPFANLKSCCVPTKLRPMSMLYYDDGQNIIKKDIQNMIVEECGCS
notes: human proINHBA residues 27-426; The results call it N-terminally histidine-tagged and purified by that tag; the methods say 'with no tag or processing site'; Furin processing incomplete; also called Pro-Activin-A; Pro-Act-A; source: expi293 (suspension HEK293), secreted; purified from conditioned medium by the histidine tag; not shown: His tag, N-terminal, kept
Consider B6, for which the binding result in series [1] is listed as “binds”.
